The source of these data is patent US20260167699A1 (Chugai, published 2026).

The target of the assay is T1, FcγRIIIa (human, UniProt P08637 17-208).
T1 construct: extracellular domain; also called 3a; FcγRIIIa extracellular domain
The assay can be described thus: SPR (Biacore).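 Further: antibody variants captured on an SPR sensor chip, with FcγRIIIa passed over as analyte in HBS-EP+ buffer at 25 °C.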

T1 sequence (P08637 other isoform, or with tags, fused parts or gaps): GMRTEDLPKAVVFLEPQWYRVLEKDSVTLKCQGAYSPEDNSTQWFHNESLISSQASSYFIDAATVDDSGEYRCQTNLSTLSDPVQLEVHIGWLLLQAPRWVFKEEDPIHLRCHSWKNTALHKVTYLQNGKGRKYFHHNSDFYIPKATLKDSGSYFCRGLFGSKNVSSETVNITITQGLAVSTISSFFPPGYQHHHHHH

B1: GpH7-A5/GpH7-B3 variant L235_13S/GpL16-k0 (antibody, human IgG1, kappa)
heavy 1: not shown
heavy 2: not shown
light: DIVMTQSPLSLPVTPGEPASISCQASESLVHSNRNTYLHWYLQKPGQSPQLLIYKVSNRFSGVPDRFSGSGSGTDFTLKISRVEAEDVGVYYCSQNTHVPPTFGQGTKVEIERTVAAPSVFIFPPSDEQLKSGTASVVCLLNNFYPREAKVQWKVDNALQSGNSQESVTEQDSKDSTYSLSSTLTLSKADYEKHKVYACEVTHQGLSSPVTKSFNRGEC
notes: copies: 1 + 1 + 2
For B1, the “He/Con 3a” value was 67.2 % of GpH7-A5/GpH7-B3/GpL16-k0.

B2: GpH7-A5/GpH7-B3 variant L234_10E/GpL16-k0 (antibody, human IgG1, kappa)
heavy 1: not shown
heavy 2: not shown
light: B1 light
notes: copies: 1 + 1 + 2
Consider B2, for which the “He/Con 3a” value was 111 % of GpH7-A5/GpH7-B3/GpL16-k0.

B3: GpH7-A5/GpH7-B3 variant K334_16H/GpL16-k0 (antibody, human IgG1, kappa)
heavy 1: not shown
heavy 2: not shown
light: B1 light
notes: copies: 1 + 1 + 2
Take B3: the “He/Con 3a” value was 138 % of GpH7-A5/GpH7-B3/GpL16-k0.

B4: GpH7-A5/GpH7-B3 variant L235_18N/GpL16-k0 (antibody, human IgG1, kappa)
heavy 1: not shown
heavy 2: not shown
light: B1 light
notes: copies: 1 + 1 + 2
For B4, the “He/Con 3a” value is 65 % of GpH7-A5/GpH7-B3/GpL16-k0.

B5: GpH7-A5/GpH7-B3 variant K334_15Y/GpL16-k0 (antibody, human IgG1, kappa)
heavy 1: not shown
heavy 2: not shown
light: B1 light
notes: copies: 1 + 1 + 2
As for B5, the “He/Con 3a” value was 145 % of GpH7-A5/GpH7-B3/GpL16-k0.

B6: GpH7-A5/GpH7-B3 variant L234_07I/GpL16-k0 (antibody, human IgG1, kappa)
heavy 1: not shown
heavy 2: not shown
light: B1 light
notes: copies: 1 + 1 + 2
Regarding B6, the “He/Con 3a” value was 99.5 % of GpH7-A5/GpH7-B3/GpL16-k0.

B7: GpH7-A5/GpH7-B3 variant L328_13S/GpL16-k0 (antibody, human IgG1, kappa)
heavy 1: not shown
heavy 2: not shown
light: B1 light
notes: copies: 1 + 1 + 2
In the case of B7, the “He/Con 3a” value is 73.7 % of GpH7-A5/GpH7-B3/GpL16-k0.

B8: GpH7-A5/GpH7-B3 variant L235_19Q/GpL16-k0 (antibody, human IgG1, kappa)
heavy 1: not shown
heavy 2: not shown
light: B1 light
notes: copies: 1 + 1 + 2
With B8, the “He/Con 3a” value is 68.1 % of GpH7-A5/GpH7-B3/GpL16-k0.

B9: GpH7-A5/GpH7-B3 variant L234_15Y/GpL16-k0 (antibody, human IgG1, kappa)
heavy 1: not shown
heavy 2: not shown
light: B1 light
notes: copies: 1 + 1 + 2
With B9, the “He/Con 3a” value was 126 % of GpH7-A5/GpH7-B3/GpL16-k0.

B10: GpH7-A5/GpH7-B3 variant L235_04F/GpL16-k0 (antibody, human IgG1, kappa)
heavy 1: not shown
heavy 2: not shown
light: B1 light
notes: copies: 1 + 1 + 2
With B10, the “He/Con 3a” value was 76.4 % of GpH7-A5/GpH7-B3/GpL16-k0.

B11: GpH7-A5/GpH7-B3 variant K334_10E/GpL16-k0 (antibody, human IgG1, kappa)
heavy 1: not shown
heavy 2: not shown
light: B1 light
notes: copies: 1 + 1 + 2
On to B11, for which the “He/Con 3a” value is 186 % of GpH7-A5/GpH7-B3/GpL16-k0.

B12: GpH7-A5/GpH7-B3 variant L328_02A/GpL16-k0 (antibody, human IgG1, kappa)
heavy 1: not shown
heavy 2: not shown
light: B1 light
notes: copies: 1 + 1 + 2
Consider B12, for which the “He/Con 3a” value is 81.3 % of GpH7-A5/GpH7-B3/GpL16-k0.

B13: GpH7-A5/GpH7-B3 variant L234_18N/GpL16-k0 (antibody, human IgG1, kappa)
heavy 1: not shown
heavy 2: not shown
light: B1 light
notes: copies: 1 + 1 + 2
With B13, the “He/Con 3a” value is 88.2 % of GpH7-A5/GpH7-B3/GpL16-k0.

B14: GpH7-A5/GpH7-B3 variant K334_06M/GpL16-k0 (antibody, human IgG1, kappa)
heavy 1: not shown
heavy 2: not shown
light: B1 light
notes: copies: 1 + 1 + 2
As to B14, the “He/Con 3a” value is 149 % of GpH7-A5/GpH7-B3/GpL16-k0.

B15: GpH7-A5/GpH7-B3 variant L235_20W/GpL16-k0 (antibody, human IgG1, kappa)
heavy 1: not shown
heavy 2: not shown
light: B1 light
notes: copies: 1 + 1 + 2
As for B15, the “He/Con 3a” value is 73.8 % of GpH7-A5/GpH7-B3/GpL16-k0.

B16: GpH7-A5/GpH7-B3 variant L328_06M/GpL16-k0 (antibody, human IgG1, kappa)
heavy 1: not shown
heavy 2: not shown
light: B1 light
notes: copies: 1 + 1 + 2
For the molecule B16, the “He/Con 3a” value was 80.8 % of GpH7-A5/GpH7-B3/GpL16-k0.

B17: GpH7-A5/GpH7-B3 variant L234_14T/GpL16-k0 (antibody, human IgG1, kappa)
heavy 1: not shown
heavy 2: not shown
light: B1 light
notes: copies: 1 + 1 + 2
For the molecule B17, the “He/Con 3a” value was 69.8 % of GpH7-A5/GpH7-B3/GpL16-k0.

B18: GpH7-A5/GpH7-B3 variant L235_07I/GpL16-k0 (antibody, human IgG1, kappa)
heavy 1: not shown
heavy 2: not shown
light: B1 light
notes: copies: 1 + 1 + 2
As for B18, the “He/Con 3a” value is 92.8 % of GpH7-A5/GpH7-B3/GpL16-k0.

B19: GpH7-A5/GpH7-B3 variant L234_19Q/GpL16-k0 (antibody, human IgG1, kappa)
heavy 1: not shown
heavy 2: not shown
light: B1 light
notes: copies: 1 + 1 + 2
Take B19: the “He/Con 3a” value was 77.1 % of GpH7-A5/GpH7-B3/GpL16-k0.

B20: GpH7-A5/GpH7-B3 variant L328_03V/GpL16-k0 (antibody, human IgG1, kappa)
heavy 1: not shown
heavy 2: not shown
light: B1 light
notes: copies: 1 + 1 + 2
For B20, the “He/Con 3a” value is 80.9 % of GpH7-A5/GpH7-B3/GpL16-k0.

B21: GpH7-A5/GpH7-B3 variant L328_15Y/GpL16-k0 (antibody, human IgG1, kappa)
heavy 1: not shown
heavy 2: not shown
light: B1 light
notes: copies: 1 + 1 + 2
Consider B21, for which the “He/Con 3a” value was 70.2 % of GpH7-A5/GpH7-B3/GpL16-k0.

B22: GpH7-A5/GpH7-B3 variant K334_08L/GpL16-k0 (antibody, human IgG1, kappa)
heavy 1: not shown
heavy 2: not shown
light: B1 light
notes: copies: 1 + 1 + 2
As to B22, the “He/Con 3a” value is 148 % of GpH7-A5/GpH7-B3/GpL16-k0.

B23: GpH7-A5/GpH7-B3 variant L328_14T/GpL16-k0 (antibody, human IgG1, kappa)
heavy 1: not shown
heavy 2: not shown
light: B1 light
notes: copies: 1 + 1 + 2
On to B23, for which the “He/Con 3a” value is 77.4 % of GpH7-A5/GpH7-B3/GpL16-k0.

B24: GpH7-A5/GpH7-B3 variant L328_16H/GpL16-k0 (antibody, human IgG1, kappa)
heavy 1: not shown
heavy 2: not shown
light: B1 light
notes: copies: 1 + 1 + 2
With B24, the “He/Con 3a” value is 55.9 % of GpH7-A5/GpH7-B3/GpL16-k0.

B25: GpH7-A5/GpH7-B3 variant L235_03V/GpL16-k0 (antibody, human IgG1, kappa)
heavy 1: not shown
heavy 2: not shown
light: B1 light
notes: copies: 1 + 1 + 2
On to B25, for which the “He/Con 3a” value is 94.6 % of GpH7-A5/GpH7-B3/GpL16-k0.

B26: GpH7-A5/GpH7-B3 variant L235_09D/GpL16-k0 (antibody, human IgG1, kappa)
heavy 1: not shown
heavy 2: not shown
light: B1 light
notes: copies: 1 + 1 + 2
On to B26, for which the “He/Con 3a” value is 88.5 % of GpH7-A5/GpH7-B3/GpL16-k0.

B27: GpH7-A5/GpH7-B3 variant L234_20W/GpL16-k0 (antibody, human IgG1, kappa)
heavy 1: not shown
heavy 2: not shown
light: B1 light
notes: copies: 1 + 1 + 2
Regarding B27, the “He/Con 3a” value is 103 % of GpH7-A5/GpH7-B3/GpL16-k0.

B28: GpH7-A5/GpH7-B3 variant L328_07I/GpL16-k0 (antibody, human IgG1, kappa)
heavy 1: not shown
heavy 2: not shown
light: B1 light
notes: copies: 1 + 1 + 2
As for B28, the “He/Con 3a” value is 86.4 % of GpH7-A5/GpH7-B3/GpL16-k0.

B29: GpH7-A5/GpH7-B3 variant L234_04F/GpL16-k0 (antibody, human IgG1, kappa)
heavy 1: not shown
heavy 2: not shown
light: B1 light
notes: copies: 1 + 1 + 2
For B29, the “He/Con 3a” value was 114 % of GpH7-A5/GpH7-B3/GpL16-k0.
